Measurements published in patent US20250076311A1 (Chugai, published 2025).

Legend:
[1] = target: T1, cynomolgus monkey FcγRIIIaS extracellular domain with C-terminal His-tag (cynomolgus monkey, UniProt Q8SPW2 21-206 at identity 1.00)); test: SPR; KD of SG1 / KD of variant
T1 construct: also called cyno FcγRIIIaS; FcgRIIIaS
T1 chain: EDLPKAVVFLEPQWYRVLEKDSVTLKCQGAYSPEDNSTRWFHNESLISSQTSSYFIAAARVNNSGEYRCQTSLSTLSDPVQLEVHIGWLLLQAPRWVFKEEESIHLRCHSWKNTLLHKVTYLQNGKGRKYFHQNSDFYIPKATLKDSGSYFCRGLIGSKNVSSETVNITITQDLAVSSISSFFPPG

[2] = target: T2, human FcγRIIaH extracellular domain with C-terminal His-tag (human, UniProt P12318 34-217); test: SPR; KD of SG1 / KD of variant
T2 construct: also called human FcγRIIa (type H); FcgRIIaH
T2 sequence: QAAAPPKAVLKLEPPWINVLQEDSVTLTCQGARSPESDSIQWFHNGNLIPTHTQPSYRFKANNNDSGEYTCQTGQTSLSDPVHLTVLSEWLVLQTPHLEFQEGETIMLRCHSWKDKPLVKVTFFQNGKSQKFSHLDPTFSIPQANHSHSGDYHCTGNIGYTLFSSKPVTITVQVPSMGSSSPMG

[3] = target: T3, cynomolgus monkey FcγRIIa2 extracellular domain with C-terminal His-tag (cynomolgus monkey); test: SPR; KD of SG1 / KD of variant
T3 construct: also called cyno FcγRIIa2; FcgRIIa2
T3 chain: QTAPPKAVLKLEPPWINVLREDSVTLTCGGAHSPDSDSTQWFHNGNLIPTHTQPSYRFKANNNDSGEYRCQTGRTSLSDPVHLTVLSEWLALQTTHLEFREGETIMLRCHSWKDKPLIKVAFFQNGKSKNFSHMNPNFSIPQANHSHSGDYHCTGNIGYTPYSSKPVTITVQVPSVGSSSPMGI

[4] = target: T4, human FcγRIIb extracellular domain with C-terminal His-tag (human, UniProt P31994 43-217); test: SPR; KD of SG1 / KD of variant
T4 construct: also called human FcgRIIb; FcgRIIb
T4 sequence: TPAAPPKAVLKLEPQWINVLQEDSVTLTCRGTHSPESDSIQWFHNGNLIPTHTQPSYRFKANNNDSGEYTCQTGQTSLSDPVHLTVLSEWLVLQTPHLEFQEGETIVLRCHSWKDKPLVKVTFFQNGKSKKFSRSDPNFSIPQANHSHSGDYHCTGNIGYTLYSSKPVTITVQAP

[5] = target: T5, human FcγRIIaR extracellular domain with C-terminal His-tag (human, UniProt P12318 34-217); test: SPR; KD of SG1 / KD of variant
T5 construct: also called human FcγRIIa (type R); FcgRIIaR
T5 chain: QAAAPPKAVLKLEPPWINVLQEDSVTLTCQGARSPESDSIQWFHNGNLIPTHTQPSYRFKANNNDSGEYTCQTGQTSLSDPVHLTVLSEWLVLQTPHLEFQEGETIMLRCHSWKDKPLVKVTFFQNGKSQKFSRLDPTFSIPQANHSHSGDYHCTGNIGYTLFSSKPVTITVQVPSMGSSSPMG

[6] = target: T6, cynomolgus monkey FcγRIIa3 extracellular domain with C-terminal His-tag (cynomolgus monkey); test: SPR; KD of SG1 / KD of variant
T6 construct: also called cyno FcγRIIa3; FcgRIIa3
T6 chain: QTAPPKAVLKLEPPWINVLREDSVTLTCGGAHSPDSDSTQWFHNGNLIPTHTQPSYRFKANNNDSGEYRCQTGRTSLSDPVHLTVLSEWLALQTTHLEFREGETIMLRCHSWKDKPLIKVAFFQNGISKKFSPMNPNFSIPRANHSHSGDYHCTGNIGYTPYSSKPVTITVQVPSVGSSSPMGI

[7] = target: T7, human FcγRIIIaV extracellular domain with C-terminal His-tag (human, UniProt P08637 17-208); test: SPR; KD of SG1 / KD of variant
T7 construct: also called human FcgRIIIaV; FcgRIIIaV
T7 sequence (P08637 17-208 F176V): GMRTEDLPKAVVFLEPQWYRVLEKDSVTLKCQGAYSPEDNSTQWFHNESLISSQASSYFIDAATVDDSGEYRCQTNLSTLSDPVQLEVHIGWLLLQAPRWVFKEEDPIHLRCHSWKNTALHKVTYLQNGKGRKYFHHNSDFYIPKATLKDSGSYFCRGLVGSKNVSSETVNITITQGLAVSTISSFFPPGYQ

[8] = target: T8, cynomolgus monkey FcγRIIb extracellular domain with C-terminal His-tag (cynomolgus monkey); test: SPR; KD of SG1 / KD of variant
T8 construct: also called cyno FcγRIIb; cynoFcγRIIb
T8 chain: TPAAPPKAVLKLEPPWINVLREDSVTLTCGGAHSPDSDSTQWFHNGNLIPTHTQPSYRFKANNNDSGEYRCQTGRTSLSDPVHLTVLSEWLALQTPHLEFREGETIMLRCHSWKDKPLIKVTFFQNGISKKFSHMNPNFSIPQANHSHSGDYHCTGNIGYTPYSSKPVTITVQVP

[9] = target: T9, cynomolgus monkey FcγRIIa1 extracellular domain with C-terminal His-tag (cynomolgus monkey); test: SPR; KD of SG1 / KD of variant
T9 construct: also called cyno FcγRIIa1; FcgRIIa1
T9 chain: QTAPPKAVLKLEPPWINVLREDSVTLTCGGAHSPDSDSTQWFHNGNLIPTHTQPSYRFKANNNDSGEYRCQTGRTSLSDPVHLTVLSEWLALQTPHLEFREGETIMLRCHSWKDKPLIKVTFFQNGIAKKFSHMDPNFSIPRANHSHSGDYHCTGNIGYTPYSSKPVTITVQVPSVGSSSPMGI

[10] = target: T10, cynomolgus monkey FcγRIIa1 extracellular domain with C-terminal His-tag (cynomolgus monkey); test: SPR (Biacore), antibody captured, FcgR as analyte
T10 construct: also called cyno FcgRIIa1; cynoFcγRIIa1
T10 chain: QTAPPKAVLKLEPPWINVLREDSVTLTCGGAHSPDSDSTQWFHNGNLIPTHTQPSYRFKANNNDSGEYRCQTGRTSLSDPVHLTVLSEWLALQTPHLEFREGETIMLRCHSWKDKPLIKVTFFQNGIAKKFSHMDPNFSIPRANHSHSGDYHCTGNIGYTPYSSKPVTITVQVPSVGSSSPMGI
Procedure: (§1) The kinetic analysis of interactions between these antibodies and FcγR was carried out using BIACORE® T200 or BIACORE® 4000 (GE Healthcare). HBS-EP+ (GE Healthcare) was used as the running buffer, and the measurement temperature was set to 25° C. […] After the measurement, the antibody captured on the chip was washed off by allowing reaction with 10 mM glycine-HCl, pH1.5 and 25 mM NaOH so that the chip was regenerated and used repeatedly. The sensorgrams obtained as measurement results were analyzed by the 1:1 Langmuir binding model using the BIACORE® Evaluation Software to calculate the binding rate constant ka (L/mol/s) and dissociation rate constant kd (1/s), and the dissociation constant KD (mol/L) was calculated from these values. […] Regarding such interactions, KD values were calculated using the following 1:1 binding model described in BIACORE® T100 Software Handbook BR1006-48 Edition AE.

[11] = target: T11, human FcγRIIIaV extracellular domain with C-terminal His-tag (human, UniProt P08637 17-208); test: SPR (Biacore), antibody captured, FcgR as analyte
T11 construct: also called human FcgRIIIaV
Procedure: as §1
T11 sequence (P08637 17-208 F176V): as the sequence (P08637 17-208 F176V) above

B1: M103205H795-MY285 (heavy chain) with M103202L889-SK1 (light chain) (antibody, human IgG1, kappa, name in EU numbering)
heavy: QVTLKESGPVLVKPTETLTLTCTVSGIDLSHDDISWVRQAPGKGLEWVGIISYAGSTYYASWAKGRLTISKDTSKNQVVLTMTNMDPVDTATYYCARGVPAYSHGGDLWGQGTLVTVSSASTKGPSVFPLAPSSKSTSGGTAALGCLVKDYFPEPVTVSWNSGALTSGVHTFPAVLQSSGLYSLSSVVTVPSSSLGTQTYICNVNHKPSNTKVDKKVEPKSCDKTHTCPPCPAPELLIGPSVFLFPPKPKDTLMISRTPEVTCVVVDVSDEDPEVKFNWYVDGVEVHNAKTKPREELYNSTYRVVSVLTVLHQDWLNGKEYKCKVSNKALPKPIEKTISKAKGQPREPQVYTLPPSREEMTKNQVSLTCLVKGFYPSDIAVEWESNGQPENNYKTTPPVLDSDGSFFLYSKLTVDKSRWQQGNVFSCSVMHEALHNHYTQKSLSLSP
light: DIVMTQSPATLSLSPGERATLSCTSSQSVYHANWLSWFQQKPGQPPKLLIYWASTLAYGVPSRFSGSGSGTDFTLTISSLQPEDAATYYCAGGYGGGRYAFGQGTKVEIKRTVAAPSVFIFPPSDEQLKSGTASVVCLLNNFYPREAKVQWKVDNALQSGNSQESVTEQDSKDSTYSLSSTLTLSKADYEKHKVYACEVTHQGLSSPVTKSFNRGEC
notes: Substitutions introduced into M103205H795-SG1; positions in EU numbering
For B1, the “KD fold (SG1 = 1)” value [1] was 0.12 fold, the “KD fold (SG1 = 1)” value [2] was 6.3 fold and the “KD fold (SG1 = 1)” value [3] was 3 fold. For the same binder, the “KD fold (SG1 = 1)” value [4] was 1.2 fold, the “KD fold (SG1 = 1)” value [5] was 2 fold and the “KD fold (SG1 = 1)” value [6] was 2.5 fold. The “KD fold (SG1 = 1)” value [7] was 0.05 fold, the “KD fold (SG1 = 1)” value [8] was 3.1 fold and the “KD fold (SG1 = 1)” value [9] was 2 fold.

B2: M103205H795-MY536 / M103202L889-SK1 (antibody, human IgG1, kappa, name in EU numbering)
heavy: QVTLKESGPVLVKPTETLTLTCTVSGIDLSHDDISWVRQAPGKGLEWVGIISYAGSTYYASWAKGRLTISKDTSKNQVVLTMTNMDPVDTATYYCARGVPAYSHGGDLWGQGTLVTVSSASTKGPSVFPLAPSSKSTSGGTAALGCLVKDYFPEPVTVSWNSGALTSGVHTFPAVLQSSGLYSLSSVVTVPSSSLGTQTYICNVNHKPSNTKVDKKVEPKSCDKTHTCPPCPGPEWLTGPVVFLFPPKPKDTLMISRTPEVTCVVVDVSDEDPEVKFNWYVDGVEVHNAKTKPREEQYNSTYRVVSVLTVLHQDWLNGKEYKCKVSNKALPKPIEKTISKAKGQPREPQVYTLPPSREEMTKNQVSLTCLVKGFYPSDIAVEWESNGQPENNYKTTPPVLDSDGSFFLYSKLTVDKSRWQQGNVFSCSVMHEALHNHYTQKSLSLSP
light: DIVMTQSPATLSLSPGERATLSCTSSQSVYHANWLSWFQQKPGQPPKLLIYWASTLAYGVPSRFSGSGSGTDFTLTISSLQPEDAATYYCAGGYGGGRYAFGQGTKVEIKRTVAAPSVFIFPPSDEQLKSGTASVVCLLNNFYPREAKVQWKVDNALQSGNSQESVTEQDSKDSTYSLSSTLTLSKADYEKHKVYACEVTHQGLSSPVTKSFNRGEC
In the case of B2, the Kd [10] is reported as 1200 nM and the Kd [11] is reported as 2700 nM.

B3: M103205H795-MY392 / M103202L889-SK1 (antibody, human IgG1, kappa, name in EU numbering)
heavy: QVTLKESGPVLVKPTETLTLTCTVSGIDLSHDDISWVRQAPGKGLEWVGIISYAGSTYYASWAKGRLTISKDTSKNQVVLTMTNMDPVDTATYYCARGVPAYSHGGDLWGQGTLVTVSSASTKGPSVFPLAPSSKSTSGGTAALGCLVKDYFPEPVTVSWNSGALTSGVHTFPAVLQSSGLYSLSSVVTVPSSSLGTQTYICNVNHKPSNTKVDKKVEPKSCDKTHTCPPCPAPELLTGPSVFLFPPKPKDTLMISRTPEVTCVVVDVSDEDPEVKFNWYVDGVEVHNAKTKPREEQYNLTYRVVSVLTVLHQDWLNGKEYKCKVSNKALPKPIEKTISKAKGQPREPQVYTLPPSREEMTKNQVSLTCLVKGFYPSDIAVEWESNGQPENNYKTTPPVLDSDGSFFLYSKLTVDKSRWQQGNVFSCSVMHEALHNHYTQKSLSLSP
light: DIVMTQSPATLSLSPGERATLSCTSSQSVYHANWLSWFQQKPGQPPKLLIYWASTLAYGVPSRFSGSGSGTDFTLTISSLQPEDAATYYCAGGYGGGRYAFGQGTKVEIKRTVAAPSVFIFPPSDEQLKSGTASVVCLLNNFYPREAKVQWKVDNALQSGNSQESVTEQDSKDSTYSLSSTLTLSKADYEKHKVYACEVTHQGLSSPVTKSFNRGEC
For B3, the Kd [11] was 9300 nM.

B4: M103205H795-MY535 / M103202L889-SK1 (antibody, human IgG1, kappa, name in EU numbering)
heavy: QVTLKESGPVLVKPTETLTLTCTVSGIDLSHDDISWVRQAPGKGLEWVGIISYAGSTYYASWAKGRLTISKDTSKNQVVLTMTNMDPVDTATYYCARGVPAYSHGGDLWGQGTLVTVSSASTKGPSVFPLAPSSKSTSGGTAALGCLVKDYFPEPVTVSWNSGALTSGVHTFPAVLQSSGLYSLSSVVTVPSSSLGTQTYICNVNHKPSNTKVDKKVEPKSCDKTHTCPPCPGPEWLTGPSVFLFPPKPKDTLMISRTPEVTCVVVDVSDEDPEVKFNWYVDGVEVHNAKTKPREEQYNSTYRVVSVLTVLHQDWLNGKEYKCKVSNKALPKPIEKTISKAKGQPREPQVYTLPPSREEMTKNQVSLTCLVKGFYPSDIAVEWESNGQPENNYKTTPPVLDSDGSFFLYSKLTVDKSRWQQGNVFSCSVMHEALHNHYTQKSLSLSP
light: DIVMTQSPATLSLSPGERATLSCTSSQSVYHANWLSWFQQKPGQPPKLLIYWASTLAYGVPSRFSGSGSGTDFTLTISSLQPEDAATYYCAGGYGGGRYAFGQGTKVEIKRTVAAPSVFIFPPSDEQLKSGTASVVCLLNNFYPREAKVQWKVDNALQSGNSQESVTEQDSKDSTYSLSSTLTLSKADYEKHKVYACEVTHQGLSSPVTKSFNRGEC
In the case of B4, the Kd [10] is reported as 1500 nM and the Kd [11] is reported as 5200 nM.
